One data set in a line: Plasma stability, mouse. The class given is in vitro ADME. Particulars: mouse, plasma, pH 7.4.
Another data set in a line: Plasma stability, cyno. The class given is in vitro ADME. Particulars: cynomolgus monkey, plasma, pH 7.4.
A short description of a further data set: Blood stability, mouse. It counts as in vitro ADME, CD-1 mouse. Particulars: male, CD-1, mouse. As for the experimental part: CD-1 mouse blood (n≥2, male, fasted overnight) is collected from animals housed at an internal facility. (EDTA-K2 is used as anticoagulant)
The test compounds and positive control stock solutions are prepared to 10 mM in DMSO or ultrapure water. Control compounds bisacodyl, enalapril and propantheline known to be metabolised by blood are also incubated alongside each batch of test compounds I-7, I-22, I-24, I-25, I-27, and I-29 to I-33. The dosing solutions of test compounds and controls are prepared by diluting the stock solution with 45% MeOH/H2O to achieve 100 uM. Test compound solutions (final incubation concentration=2 μM) are incubated with blood (final DMSO concentration≤1%) at six different time points (0, 1, 2, 4, 6 and 24 hours) in duplicate (n=2). The reaction is terminated by adding 100 uL ultra-pure water, mixing well, then adding 800 uL of 100% methanol containing 200 ng/mL tolbutamide and 200 ng/mL labetalol as internal standards. Samples are then vortexed and centrifuged at 3200×g for 20 minutes. Following centrifugation, the concentration of test compound in the supernatant is determined semi-quantitatively by LC-MS/MS. The percentage of test compound remaining at the individual time points relative to the 0 hour sample is then reported. The percent remaining of test compound after incubation in blood is calculated using following equation: Percent Remaining=100×(PAR at appointed incubation time/PAR at T0 time) where PAR is the peak area ratio of analyte versus internal standard (IS).

Another data set is described as follows: Plasma stability, human. It counts as in vitro ADME. Conditions: human, plasma, pH 7.4.
Another data set is described as follows: Plasma stability, rat. Particulars: rat, plasma, pH 7.4. The class given is in vitro ADME.
A short description of a further data set: Plasma stability, dog. The class given is in vitro ADME. Particulars: dog, plasma, pH 7.4. As to the method:
The pooled frozen mouse, rat, dog, monkey or human plasma is thawed in a water bath at 37° C. prior to experiment. Plasma is centrifuged at 4000 rpm for 5 min and the clots are removed if any. […] For positive controls, 100 μM intermediate solution is prepared by diluting 20 μL of the stock solution with 180 μL 45% MeOH/H2O. […] For compounds I-7 to […]-17, […]-22, and […]-33, at each time point (0, 1, 2, 4, 6 and 24 hr), reactions were stopped by removing the plates from water bath and 200 μL 20 mM NH4OAC mix well first and then adding 800 μL of ice-cold stop solution (200 ng/mL Labetalol, 200 ng/mL Tolbutamide, 500 ng/mL N6-Ben and 40 mM DBAA in 100% Methanol). […] Sample plates were vortexed immediately on a plate shaker at 800 rpm for 10 min and then centrifuged at 4,000 rpm for 10 min. An aliquot of supernatant (200 μL) is transferred from each well before submitting to LC-MS/MS analysis. The percentage of test compound remaining at the individual time points relative to the 0 hour sample is calculated using following equation: Percent Remaining=100×(PAR at appointed incubation time/PAR at T0 time) where PAR is the peak area ratio of analyte versus internal standard (IS).

The target of data set [1] is T1, hemopexin domain of MT1 (Homo sapiens, UniProt P50281). Description: Fluorescence polarization binding to MT1-MMP hemopexin domain. Conditions: read-out: apparent Kd. As for the experimental part: Direct Binding Fluorescence Polarization or Anisotropy Assays are performed by titrating a constant concentration of fluorescent tracer (here, the fluoresceinated bicyclic peptide to be studied) with its binding partner (here, the MT1-MMP hemopexin domain). As the concentration of binding partner increases during the titration, the polarization signal changes in proportion to the fraction of bound and unbound material. This allows determination of […] (Kd) quantitatively. Assay data can be fit using standard ligand binding equations.
The titrant (binding partner) concentration is varied from 0.1 nM up to typically 5 μM. The range is chosen such that the maximum change in fluorescent polarization can be observed. Buffers employed are phosphate buffered saline in the presence of 0.01% Tween. Experiments were run in black 384 well low-bind/low volume plates (Corning 3820), and the fluorescent polarization signal was measured using a BMG Pherastar FS plate reader. […]
Here, a preformed complex of PEX with the fluorescent PEX-binding tracer is titrated with free, non-fluoresceinated bicyclic peptide. […] Dissociation of the complex can be measured quantitatively, and the Kd of the competitor (titrant) to the target protein determined. The advantage of the competition method is that the affinities of non-fluoresceinated bicyclic peptides can be determined accurately and rapidly. […]
For orientation: Fluorescence polarisation rises when a labelled molecule tumbles more slowly, as on binding a larger partner.

Data set [2] in a line: Tumor localization after IV injection. It counts as in vivo. Conditions: mouse, mice bearing MT1-positive tumor xenografts, in less than 60 minutes, read-out: tumor localization level.
The target of data set [3] is T1, hemopexin domain of MT1. Conditions: MT1-MMP binder formed with TBMB scaffold, as described in WO 2016/067035; cited from earlier work.

Read-outs that look alike come from different tables or passages of the source. Starred links: 1 amine or outer side, 2 acyl side, 3 side chain; linkers in the order of their positions; H or OH if unused. Positions of bridges follow the written chain, without caps; N, C: chain ends. Non-standard residues stand in square brackets, D forms with d. Residues, ends and D or L forms follow the SMILES beside them. *: point of attachment. X3 = CCOCc1nc2c(NC(=O)OCc3ccc(NC(=O)[C@H](CCCNC(N)=O)NC(=O)[C@@H](NC(=O)Cn4cc(CCC(=O)*)nn4)C(C)C)cc3)nc3ccccc3c2n1CC(C)(C)O; X2 = CCOCc1nc2c(NC(=O)OCCSCC(=O)*)nc3ccccc3c2n1CC(C)(C)O; 1Nal = N[C@@H](Cc1cccc2ccccc12)C(=O)O; TBMB = c1c(C[*:1])cc(C[*:3])cc1C[*:2]; Tle = CC(C)(C)[C@H](N)C(=O)O; βAla = NCCC(=O)O; Sar = CNCC(=O)O

Consider `CCOCc1nc2c(NC(=O)OCCSCC(=O)NCCC(=O)N(C)CC(=O)N(C)CC(=O)N(C)CC(=O)N(C)CC(=O)N(C)CC(=O)N(C)CC(=O)N(C)CC(=O)N(C)CC(=O)N(C)CC(=O)N(C)CC(=O)N[C@@H](C)C(=O)N[C@H]3CSCc4cc5cc(c4)CSC[C@H](NC(=O)[C@@H](C)NC(=O)[C@H](Cc4cccc6ccccc46)NC(=O)[C@H](CCC(=O)O)NC(=O)[C@H](CC(N)=O)NC(=O)[C@@H](C)NC3=O)C(=O)N[C@@H](CCC(=O)O)C(=O)N[C@@H](CC(=O)O)C(=O)N[C@@H](Cc3ccccc3)C(=O)N[C@@H](Cc3ccc(O)cc3)C(=O)N[C@@H](CC(=O)O)C(=O)N[C@@H](C(C)(C)C)C(=O)N[C@H](C(N)=O)CSC5)nc3ccccc3c2n1CC(C)(C)O` [I-7] ({X2-βAla}-[Sar][Sar][Sar][Sar][Sar][Sar][Sar][Sar][Sar][Sar]AC[dA]NE[1Nal][dA]CEDFYD[Tle]C-NH2; linker 12-18-25 via TBMB), for which the half-life at 2 μM in “Plasma stability, mouse” was 6 to 24 h; in “Plasma stability, cyno” it was over 24 h; in “Blood stability, mouse” it was under 2 h; in “Plasma stability, human”, over 24 h; in the data set “Plasma stability, rat”, 6 to 24 h; in “Plasma stability, dog”, over 24 h.
As to `CCOCc1nc2c(NC(=O)OCc3ccc(NC(=O)[C@H](CCCNC(N)=O)NC(=O)[C@@H](NC(=O)Cn4cc(CCC(=O)NCCC(=O)N(C)CC(=O)N(C)CC(=O)N(C)CC(=O)N(C)CC(=O)N(C)CC(=O)N(C)CC(=O)N(C)CC(=O)N(C)CC(=O)N(C)CC(=O)N(C)CC(=O)N[C@@H](C)C(=O)N[C@H]5CSCc6cc7cc(c6)CSC[C@H](NC(=O)[C@@H](C)NC(=O)[C@H](Cc6cccc8ccccc68)NC(=O)[C@H](CCC(=O)O)NC(=O)[C@H](CC(N)=O)NC(=O)[C@@H](C)NC5=O)C(=O)N[C@@H](CCC(=O)O)C(=O)N[C@@H](CC(=O)O)C(=O)N[C@@H](Cc5ccccc5)C(=O)N[C@@H](Cc5ccc(O)cc5)C(=O)N[C@@H](CC(=O)O)C(=O)N[C@@H](C(C)(C)C)C(=O)N[C@H](C(N)=O)CSC7)nn4)C(C)C)cc3)nc3ccccc3c2n1CC(C)(C)O` [I-22] ({X3-βAla}-[Sar][Sar][Sar][Sar][Sar][Sar][Sar][Sar][Sar][Sar]AC[dA]NE[1Nal][dA]CEDFYD[Tle]C-NH2; linker 12-18-25 via TBMB), the half-life at 2 μM in “Plasma stability, mouse” was 2 to 6 h; in “Plasma stability, cyno”, over 24 h; in “Blood stability, mouse”, under 2 h; in “Plasma stability, human”, over 24 h; in “Plasma stability, rat”, 2 to 6 h; in “Plasma stability, dog”, over 24 h.
Turning to `C[C@H](NC(=O)CN(C)C(=O)CN(C)C(=O)CN(C)C(=O)CN(C)C(=O)CN(C)C(=O)CN(C)C(=O)CN(C)C(=O)CN(C)C(=O)CN(C)C(=O)CN(C)C(=O)CCN)C(=O)N[C@H]1CSCc2cc3cc(c2)CSC[C@H](NC(=O)[C@@H](C)NC(=O)[C@H](Cc2cccc4ccccc24)NC(=O)[C@H](CCC(=O)O)NC(=O)[C@H](CC(N)=O)NC(=O)[C@@H](C)NC1=O)C(=O)N[C@@H](CCC(=O)O)C(=O)N[C@@H](CC(=O)O)C(=O)N[C@@H](Cc1ccccc1)C(=O)N[C@@H](Cc1ccc(O)cc1)C(=O)N[C@@H](CC(=O)O)C(=O)N[C@@H](C(C)(C)C)C(=O)N[C@H](C(N)=O)CSC3` [N241] (H-[βAla][Sar][Sar][Sar][Sar][Sar][Sar][Sar][Sar][Sar][Sar]AC[dA]NE[1Nal][dA]CEDFYD[Tle]C-NH2; linker 13-19-26 via TBMB), the Kd at hemopexin domain of MT1 [1] was about 2 nM.
As to `C[C@H](NC(=O)CN(C)C(=O)CN(C)C(=O)CN(C)C(=O)CN(C)C(=O)CN(C)C(=O)CN(C)C(=O)CN(C)C(=O)CN(C)C(=O)CN(C)C(=O)CN(C)C(=O)CCN)C(=O)N[C@H]1CSCc2cc3cc(c2)CSC[C@H](NC(=O)[C@@H](C)NC(=O)[C@H](Cc2cccc4ccccc24)NC(=O)[C@H](CCC(=O)O)NC(=O)[C@H](CC(N)=O)NC(=O)[C@@H](C)NC1=O)C(=O)N[C@@H](CCC(=O)O)C(=O)N[C@@H](CC(=O)O)C(=O)N[C@@H](Cc1ccccc1)C(=O)N[C@@H](Cc1ccc(O)cc1)C(=O)N[C@@H](CC(=O)O)C(=O)N[C@@H](C(C)(C)C)C(=O)N[C@H](C(N)=O)CSC3` [^177Lu-loaded N241, metal not drawn] (H-[βAla][Sar][Sar][Sar][Sar][Sar][Sar][Sar][Sar][Sar][Sar]AC[dA]NE[1Nal][dA]CEDFYD[Tle]C-NH2; linker 13-19-26 via TBMB; N-terminus and C-terminus assumed), the tissue uptake in data set [2] is 15 to 20 %ID/g.
Take “βAla-Sar10-A-C(D-Ala)NE(1Nal)(D-Ala)CEDFYD(tBuGLy)C [17-69-07-N241]”: the Kd at hemopexin domain of MT1 [3] is 1.2 nM.

Usually half-life stands for how long it takes for the measured level to halve. Read a low half-life as rapid decline.

The values are drawn from patent publication US20200283482A1, “BICYCLIC PEPTIDE LIGAND PRR-A CONJUGATES AND USES THEREOF” (BicycleRD Limited, priority 2017, published 2020).
